B1: CD2AP SH3-C, Q9Y5K6 (protein)
chain: KAKEYCRTLFAYEGTNEDELTFKEGEIIHLISKETGEAGWWRGELNGKEGVFPDNFAVQINE
B2: CD2AP SH3-B, Q9Y5K6 (protein)
chain: TKKRQCKVLFEYIPQNEDELELKVGDIIDINEEVEEGWWSGTLNNKLGLFPSNFVKELEV

Experiments:
[1] = target: CHIKV nsP3 hypervariable domain (HVD), aa 325-523, with C-terminal Twin-Strep-tag (chikungunya virus (CHIKV) strain 181-25); assay: NMR titration
[2] = target: nsP3 Site 1 (Chikungunya virus), Q8JUX6; assay: NMR

| Molecule | apparent KD, Site 2 [1] [µM] | KD, Site 1 [1] [µM] | Kd [2] [µM] |
| --- | --- | --- | --- |
| CD2AP SH3-A domain (domain or fragment) | 137 |  |  |
| CD2AP SH3-B domain (domain or fragment) | 75.7 | 4.5 |  |
| CD2AP SH3-C domain (domain or fragment) | 154 |  |  |
| B1 |  |  | 51.7 |
| B2 |  |  | 4.5 |
